Measurements from patent publication US20230108300A1 (University of Pennsylvania, published 2023).

Biological target: MART1 clone DMF4 TCR (includes the TCRvβ12 segment) expressed on SupT1 cells
Test: cell-based or functional assay

lysis of the target cell lines at three E:T ratios: ~100%
B1: Vβ12-targeting CAR (construct not specified for the experiment) (other)
VH: EVMLVESGGGLVKPGGSLKLSCAASGFTFRSYAMSWVRQTPEKRLEWVATISSGGSYTNYPDSVKGRFTISRDNAKNTLNLQMNSLRSEDTAMYYCARGYHGYLDVWGAGTTVTVSS
VL: DILLTQSPAFLSVSPGERVSFSCRASQSIGTSIHWYQQRTNGSPRLLIKYASESFSGIPSRFSGSGSGTDFTLSISSVESEDIADYYCQQSYSWPYTFGGGTKLEIK
